Experimental findings from the supplement of paper PMC10567573 are described below.

± gives the standard deviation.

This series is described as follows: protein stability index of a GFP-peptide fusion (GPS, HEK-293T) (PSI 1-6); higher = more stable.
Setting [1] is: treatment: DMSO, c terminus: a fixed tail appended.
The mark [2] stands for this setting: treatment: MLN4924 1 uM, 8 h, c terminus: a fixed tail appended.
The mark [3] stands for this setting: treatment: DMSO, c terminus: native.
Setting [4] is: treatment: MLN4924 1 uM, 8 h, c terminus: native.
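Note: 24-mer peptide tiles fused after GFP, lentivirally expressed, FACS-sorted into six equal bins by GFP/DsRed ratio, decoded by Illumina sequencing, PSI is the read-weighted mean bin number.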

Consider KLTKESYPVVVAESMYGDFQEAMT [TENT5D], for which the protein stability index runs as follows: under setting [1], 3.16 ± 0.2; under setting [2], 3.41 ± 0.37.

The sequence KMAVSRHLTRGRKMAHVIAACLYL [BRF1] registered a protein stability index under setting [1] of 2.81 ± 0.37 and a protein stability index under setting [2] of 2.6 ± 0.56.

KMKGFGFWPAKVMQKEDNQVDVRF [ZMYND11]: the protein stability index under setting [1] is 3.11 ± 0.39 and the protein stability index under setting [2] is 3.11 ± 0.34.

In the case of KMKKLGQAMEEDLIVGLQGMDLNL [HDAC6], the protein stability index was determined as 3.86 ± 0.24 under setting [1] and 3.5 ± 0.43 under setting [2].

KMLGNPSRLPAKCPGKGAWSIPWK [FKBP8]: the protein stability index is 2.08 ± 0.26 under setting [1] and 2.25 ± 0.23 under setting [2].

Turning to KMLSKAVDALKSDKKVRTIIIRSE [AUH], the protein stability index under setting [1] was 1.81 ± 0.26 and the protein stability index under setting [2] stood at 2 ± 0.6.

As to KNANRPLLDEIVPVYRRDCHEEVY [ACBD3], the protein stability index by setting is: under setting [1], 3.88 ± 0.1; under setting [2], 3.74 ± 0.15.

As for KNDGRIDAQEIMQSLRDLGVKISE [SLC25A25], the protein stability index by setting is: under setting [1], 3.19 ± 0.21; under setting [2], 3.29 ± 0.27.

As for KNLLHAEFLRVQEERILHQQVKCI [VPS39], the protein stability index was found to be 2.58 ± 0.16 under setting [1] and 2.71 ± 0.26 under setting [2].

For the sequence KPEAPLHLPVTFPGKDYDADRQCQ [ADAMTS4], the protein stability index reads like this: under setting [1], 5.05 ± 0.15; under setting [2], 5.13 ± 0.22.

In the case of KPFVSVFRHLRLQYIISDLASARI [GMCL1], the protein stability index by setting is: under setting [1], 3.07 ± 0.69; under setting [2], 2.78 ± 0.85.

Regarding KPWDFPSVHNDLWESWFVPDPAGI [GLT8D2], the protein stability index stood at 2.96 ± 0.38 under setting [1] and 2.69 ± 0.16 under setting [2].

On to KPYDPPGEKMVAAKVKGEKLDKKL [ATF4], for which the protein stability index is, setting by setting: under setting [1], 5.12 ± 0.21; under setting [2], 5.12 ± 0.056.

For the sequence KQTQCPADPLQLNKALSIILHLIC [FEM1C], the protein stability index was 1.91 ± 0.17 under setting [1] and 2.21 ± 0.39 under setting [2].

As to KRRPKAQPTTLVLPPQYVDDVISR [MED27], the protein stability index runs as follows: under setting [1], 4.03 ± 0.12; under setting [2], 4.06 ± 0.17.

As to KRVYEEFTKVVQPQEEIATKKLRL [INTS4], the protein stability index runs as follows: under setting [1], 3.31 ± 0.33; under setting [2], 3.86 ± 0.36.

Regarding KSIGSEPHEDHVFLVANFSQIETL [MATN2], the protein stability index came to 2.92 ± 0.47 under setting [1] and 2.8 ± 0.25 under setting [2].

On to KSKTRSLLKRMESLKLKSSHHSKH [DLC1], for which the protein stability index is 3.48 ± 0.14 under setting [1] and 3.53 ± 0.16 under setting [2].

KSSSSSSSSSSSSSSSSSSSSSGP [TMEM40] registered a protein stability index under setting [1] of 5.29 ± 0.15 and a protein stability index under setting [2] of 5.3 ± 0.1.

Consider KSVLKSDEEHMEEAITSASFLEQI [FAM189A2], for which the protein stability index is, setting by setting: under setting [1], 4.76 ± 0.31; under setting [2], 4.85 ± 0.2.

KSVQHVVLQALFYLLDRAVDSFET [PTPN9]: the protein stability index came out at 3.21 ± 0.38 under setting [1] and 2.58 ± 0.41 under setting [2].

Consider KTTIPEEEEEEEEAAGVVVEEELF [LMNB1], for which the protein stability index runs as follows: under setting [1], 5.55 ± 0.29; under setting [2], 5.62 ± 0.2.

Regarding KTVDKHSDEYKIRRERNNIAVRKS [CEBPB], the protein stability index stood at 4.59 ± 0.17 under setting [1] and 4.79 ± 0.39 under setting [2].

On to KVQDALQNQSDSLLALAGAVQRLE [SCARA5], for which the protein stability index is, setting by setting: under setting [1], 3.16 ± 0.24; under setting [2], 3.29 ± 0.33.

KVVLIGDSGVGKSNLLSRFTRNEF [RAB11A]: the protein stability index was 2.33 ± 0.19 under setting [1] and 2.28 ± 0.39 under setting [2].

The sequence KWLLWTEHQYRLPPMGKAFQELAG [SPDEF] showed a protein stability index under setting [1] of 2.44 ± 0.55 and a protein stability index under setting [2] of 2.16 ± 0.48.

On to KYDMEVRVQKTSKELEDMNQKLFD [TNNI2], for which the protein stability index was 4.81 ± 0.13 under setting [1] and 4.73 ± 0.2 under setting [2].

Consider LADKELVHMISWAKKIPGMRGNA [ESR2], for which the protein stability index under setting [3] turned out to be 2.95 ± 0.85 and the protein stability index under setting [4] is 2.56 ± 0.7.

Consider LAIKKQQHIDNITQIEDATEKLKA [TRIM14], for which the protein stability index is, setting by setting: under setting [1], 4.41 ± 0.27; under setting [2], 4.38 ± 0.21.

Turning to LAQIAEVLEMFDLRMMVENIMNKE [RHOBTB1], the protein stability index under setting [1] was found to be 2.54 ± 0.35 and the protein stability index under setting [2] stood at 2.22 ± 0.12.

For LASAYTGRLSMAAADIVNFLTVGS [ZBTB22], the protein stability index is, setting by setting: under setting [1], 2.77 ± 0.28; under setting [2], 3.09 ± 0.66.

Take LAYGSVITVKNLRMAIGYLHSHRH [POMT2]: the protein stability index runs as follows: under setting [1], 2.53 ± 0.69; under setting [2], 2.63 ± 0.65.

On to LCKVLGVLFSVAGGLFVGKEGPMI [CLCN6], for which the protein stability index reads like this: under setting [1], 2.73 ± 0.25; under setting [2], 2.89 ± 0.5.

LCRAQRERLASANLRVLVDCILRD [TEKT4] showed a protein stability index under setting [1] of 2.08 ± 0.58 and a protein stability index under setting [2] of 2.41 ± 0.21.

Regarding LCSDLEEAPEAELSQAPAEGPDLV [HES6], the protein stability index under setting [1] was 5.61 ± 0.12 and the protein stability index under setting [2] stood at 5.57 ± 0.3.

For LDDIYYFGGQNAHNQIAIYAHQPR [FUT8], the protein stability index came out at 2.87 ± 0.41 under setting [1] and 2.92 ± 0.39 under setting [2].

Consider LDFLPKDVKKEKLSPDIMKDAYVQ [TENT5D], for which the protein stability index runs as follows: under setting [1], 3.96 ± 0.14; under setting [2], 3.78 ± 0.26.

On to LDKELRAMLREKFPEFCSSPSPPV [INTS3], for which the protein stability index worked out at 3.22 ± 0.31 under setting [1] and 3.42 ± 0.31 under setting [2].

With LDLMKEWIAHSEKLPRKVLQHVSE [SPACA9], the protein stability index reads like this: under setting [1], 3 ± 0.36; under setting [2], 3.67 ± 0.47.

Regarding LDPQPITDEEEGLIWVVGPVLAVV [PTPRD], the protein stability index under setting [1] worked out at 2.02 ± 0.41 and the protein stability index under setting [2] turned out to be 2.42 ± 0.27.

Take LDRFLSLEPVKKSRLQLLGATCMF [CCND1]: the protein stability index by setting is: under setting [1], 2.42 ± 0.36; under setting [2], 2.39 ± 0.14.

In turn, LEFLLALYFLFADAMQLNDKWQGL [CMTM3] returned a protein stability index under setting [1] of 2.77 ± 0.45 and a protein stability index under setting [2] of 2.8 ± 0.93.

LEGALHQAKEELARMLREYQELMS [KRT71] came in with a protein stability index under setting [1] of 2.98 ± 0.3 and a protein stability index under setting [2] of 3.48 ± 0.46.

Regarding LEKKNEALKERADSLAKEIQYLKD [ATF4], the protein stability index was found to be 4.53 ± 0.24 under setting [1] and 4.45 ± 0.056 under setting [2].

Consider LEKNHPEEFCEFVKSNTEQMREAF [ZBED1], for which the protein stability index came to 4.58 ± 0.13 under setting [1] and 4.63 ± 0.16 under setting [2].

Turning to LELPEDEEEKKKMEESKAKFENLC [HSP90AB1], the protein stability index under setting [1] amounted to 5.46 ± 0.42 and the protein stability index under setting [2] came to 5.3 ± 0.33.

LEMRRRCTWSIFQSIEYAGQQDQV [PPEF2] gave a protein stability index under setting [1] of 1.92 ± 0.52 and a protein stability index under setting [2] of 2.25 ± 0.1.

Take LESRIRDVHELFLQMAVLVEKQAD [STX11]: the protein stability index amounted to 2.27 ± 0.35 under setting [1] and 2.37 ± 0.34 under setting [2].

Regarding LEVPKPGQPSEPEHGPSPGQDTFC [CHIT1], the protein stability index is 5.22 ± 0.17 under setting [1] and 5.23 ± 0.19 under setting [2].

As for LGDMQTAREGAGLVVASGVIYCLG [KLHL12], the protein stability index reads like this: under setting [1], 2.47 ± 0.45; under setting [2], 2.29 ± 0.8.

Take LGDSGLGPWQLNVFVCRVSAVLFY [P2RY14]: the protein stability index under setting [1] turned out to be 3.32 ± 0.17 and the protein stability index under setting [2] was determined as 2.84 ± 0.42.

For the sequence LGLRQHHCRKCGQAVCGKCSSKRS [WDFY1], the protein stability index is 4.28 ± 0.29 under setting [1] and 4.26 ± 0.29 under setting [2].

For LGNLVEGLDFHRFYFENLWSRNSK [CAMK2A], the protein stability index reads like this: under setting [1], 2.2 ± 0.47; under setting [2], 2.51 ± 0.24.

The sequence LGQILVSVAGWSLFSLNVISLTCV [SLC19A2] came in with a protein stability index under setting [1] of 3.3 ± 0.26 and a protein stability index under setting [2] of 3.21 ± 0.47.

In the case of LGQIVLLPAEARERSRGRSISRGR [MATN2], the protein stability index by setting is: under setting [1], 3.86 ± 0.45; under setting [2], 4.21 ± 0.18.

For LGRMFGSGREHNFTRPNEKGEYEV [BTBD10], the protein stability index under setting [1] is 3.95 ± 0.08 and the protein stability index under setting [2] is 3.98 ± 0.25.

LGYQAVPSGSSGSLSTSSSSSPPG [CEBPB]: the protein stability index by setting is: under setting [1], 4.78 ± 0.12; under setting [2], 4.85 ± 0.14.

With LHESYCMDTSHQPLLPAPPKTPMD [LYSMD4], the protein stability index was 4.65 ± 0.27 under setting [1] and 4.59 ± 0.11 under setting [2].

Regarding LHSSILTCTLLLLYSLAPTMGAVV [MFSD9], the protein stability index under setting [1] came out at 3.36 ± 0.4 and the protein stability index under setting [2] is 2.94 ± 0.24.

For LHYGLPVVVKLLHPPSHWPLIKAT [CTNNB1], the protein stability index reads like this: under setting [1], 2.3 ± 0.45; under setting [2], 2.46 ± 0.42.

LIWSYPAGSLTFPVRPFFYTGHR [TRIM43]: the protein stability index runs as follows: under setting [3], 1.97 ± 0.37; under setting [4], 2.15 ± 0.11.

As to LKATFSGFTKEQQRLGIPKDPRQW [ETS1], the protein stability index was 2.75 ± 0.25 under setting [1] and 2.82 ± 0.36 under setting [2].

As for LKFDNSYSLWRSKSVYYRVYYTR [ACBD3], the protein stability index is, setting by setting: under setting [3], 2.52 ± 0.6; under setting [4], 2.29 ± 0.71.

Take LKKIKEKDKENKFLCVLMSDWFNF [CLK3]: the protein stability index by setting is: under setting [1], 2.14 ± 0.36; under setting [2], 2.24 ± 0.24.

LKNPFFRYTGTTPSPPPGSHYTSP [CARM1]: the protein stability index reads like this: under setting [1], 2.9 ± 0.16; under setting [2], 3.16 ± 0.25.

LKSISAEEILTLFCGAPPVTPIIV [PHTF1] displayed a protein stability index under setting [1] of 3.16 ± 0.29 and a protein stability index under setting [2] of 2.62 ± 0.53.

For the sequence LKSLIRLVKHWYQNCKKKLGKLPP [OAS1], the protein stability index under setting [1] was 2.94 ± 0.36 and the protein stability index under setting [2] stood at 3.02 ± 0.25.

Sequence LLAEREQEEAIAQFPYVEFTGRDS [TMEM106C] registered a protein stability index under setting [1] of 4.6 ± 0.27 and a protein stability index under setting [2] of 4.72 ± 0.13.

For LLAPEAGSHPQQTQKLEEIKENAQ [TOR1AIP2], the protein stability index was 5.44 ± 0.097 under setting [1] and 5.47 ± 0.25 under setting [2].

As for LLCVNYFFYGETVTDYFFTLVQRE [CDS2], the protein stability index was determined as 2.9 ± 0.36 under setting [1] and 3.2 ± 0.41 under setting [2].

Consider LLEKNASVNEVDFEGRTPMHVACQ [RIPK4], for which the protein stability index came to 3.83 ± 0.31 under setting [1] and 3.94 ± 0.16 under setting [2].

In turn, LLGWGYYLIMLPFRFTYYTILDIF [FAF2] showed a protein stability index under setting [1] of 4.59 ± 0.36 and a protein stability index under setting [2] of 4.7 ± 0.17.
